Data reported in US20020159976A1.

Key:
[1] = molecular target: T1, casein peptide αs1-casein(1-17) (UniProt P02662)
T1 sequence: RPKHPIKHQGLPQEVLN

[2] = molecular target: type I collagen from calf skin (calf) (UniProt P02453); test: dot blot, ~1 ug ligand on nitrocellulose, 125I-labelled binder, autoradiograph density divided by Ponceau S density, mean of two dots
[3] = molecular target: laminin from the basement membrane of Engelbreth-Holm-Swarm mouse sarcoma (mouse) (UniProt P19137); test: as above
[4] = molecular target: type IV collagen from human placenta (human) (UniProt P02462); test: as above
[5] = molecular target: fibronectin from human plasma (human) (UniProt P02751); test: as above
Sequence of UniProt P02751 (P02751 other isoform, or with tags, fused parts or gaps limits assumed): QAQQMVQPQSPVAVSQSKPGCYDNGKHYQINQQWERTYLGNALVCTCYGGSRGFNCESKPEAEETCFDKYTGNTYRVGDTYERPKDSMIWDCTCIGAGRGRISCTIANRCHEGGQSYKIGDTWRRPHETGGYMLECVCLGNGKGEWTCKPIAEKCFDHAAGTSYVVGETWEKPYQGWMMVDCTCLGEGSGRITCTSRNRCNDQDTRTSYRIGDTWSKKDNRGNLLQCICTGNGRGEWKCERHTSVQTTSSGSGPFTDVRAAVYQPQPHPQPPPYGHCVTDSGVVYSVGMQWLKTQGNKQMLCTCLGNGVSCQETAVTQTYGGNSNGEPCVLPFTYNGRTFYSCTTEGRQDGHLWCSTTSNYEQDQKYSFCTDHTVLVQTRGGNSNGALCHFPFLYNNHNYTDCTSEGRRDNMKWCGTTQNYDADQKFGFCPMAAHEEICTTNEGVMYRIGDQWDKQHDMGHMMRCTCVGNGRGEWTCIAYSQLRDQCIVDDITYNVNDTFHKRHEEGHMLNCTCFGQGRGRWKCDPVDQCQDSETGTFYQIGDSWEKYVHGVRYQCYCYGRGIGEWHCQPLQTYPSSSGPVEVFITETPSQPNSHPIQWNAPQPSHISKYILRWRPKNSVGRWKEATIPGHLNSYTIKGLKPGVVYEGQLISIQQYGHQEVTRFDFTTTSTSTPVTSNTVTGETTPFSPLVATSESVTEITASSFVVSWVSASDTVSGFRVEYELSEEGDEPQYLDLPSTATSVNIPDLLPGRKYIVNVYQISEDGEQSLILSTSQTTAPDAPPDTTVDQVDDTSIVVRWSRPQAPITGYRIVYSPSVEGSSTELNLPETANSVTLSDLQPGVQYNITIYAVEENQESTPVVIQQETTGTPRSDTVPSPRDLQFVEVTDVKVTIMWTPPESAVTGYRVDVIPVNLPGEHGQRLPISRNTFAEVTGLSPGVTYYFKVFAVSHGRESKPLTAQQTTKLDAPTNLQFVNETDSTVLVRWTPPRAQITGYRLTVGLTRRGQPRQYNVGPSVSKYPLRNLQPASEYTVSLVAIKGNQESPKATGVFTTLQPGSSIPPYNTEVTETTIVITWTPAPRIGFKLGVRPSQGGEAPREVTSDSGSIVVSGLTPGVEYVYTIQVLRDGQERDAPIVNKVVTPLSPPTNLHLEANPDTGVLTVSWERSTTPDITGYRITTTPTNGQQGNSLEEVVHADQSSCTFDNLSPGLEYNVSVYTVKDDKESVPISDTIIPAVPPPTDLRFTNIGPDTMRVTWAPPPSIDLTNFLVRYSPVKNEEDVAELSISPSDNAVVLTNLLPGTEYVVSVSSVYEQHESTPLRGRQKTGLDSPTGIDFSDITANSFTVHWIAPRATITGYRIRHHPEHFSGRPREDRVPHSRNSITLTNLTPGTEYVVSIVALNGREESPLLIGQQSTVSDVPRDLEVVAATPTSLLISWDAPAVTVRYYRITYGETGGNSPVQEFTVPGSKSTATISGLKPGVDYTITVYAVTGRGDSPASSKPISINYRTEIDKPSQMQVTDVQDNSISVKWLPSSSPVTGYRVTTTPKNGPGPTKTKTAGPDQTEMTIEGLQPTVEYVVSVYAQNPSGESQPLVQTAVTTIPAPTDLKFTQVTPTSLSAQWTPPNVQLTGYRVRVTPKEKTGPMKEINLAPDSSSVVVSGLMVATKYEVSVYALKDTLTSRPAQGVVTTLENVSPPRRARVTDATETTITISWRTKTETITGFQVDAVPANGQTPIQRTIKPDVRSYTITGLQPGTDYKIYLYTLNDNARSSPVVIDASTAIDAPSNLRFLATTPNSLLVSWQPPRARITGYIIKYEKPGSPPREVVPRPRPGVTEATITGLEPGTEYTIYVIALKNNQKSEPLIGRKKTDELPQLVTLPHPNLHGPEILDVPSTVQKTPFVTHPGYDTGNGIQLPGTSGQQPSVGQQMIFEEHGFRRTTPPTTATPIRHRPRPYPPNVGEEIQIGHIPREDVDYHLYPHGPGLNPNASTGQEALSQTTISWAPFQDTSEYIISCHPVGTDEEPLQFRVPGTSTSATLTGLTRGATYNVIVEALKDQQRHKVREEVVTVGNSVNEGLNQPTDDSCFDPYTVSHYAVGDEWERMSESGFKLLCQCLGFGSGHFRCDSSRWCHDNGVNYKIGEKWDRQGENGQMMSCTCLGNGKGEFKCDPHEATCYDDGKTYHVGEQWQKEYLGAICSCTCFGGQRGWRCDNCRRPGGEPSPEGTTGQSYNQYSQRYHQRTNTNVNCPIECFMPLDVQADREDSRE

[6] = molecular target: type III mucin partially purified from porcine stomach (porcine); test: as above
[7] = molecular target: bovine serum albumin (bovine) (UniProt P02769); test: as above
Sequence of UniProt P02769 (P02769 25-607 limits assumed): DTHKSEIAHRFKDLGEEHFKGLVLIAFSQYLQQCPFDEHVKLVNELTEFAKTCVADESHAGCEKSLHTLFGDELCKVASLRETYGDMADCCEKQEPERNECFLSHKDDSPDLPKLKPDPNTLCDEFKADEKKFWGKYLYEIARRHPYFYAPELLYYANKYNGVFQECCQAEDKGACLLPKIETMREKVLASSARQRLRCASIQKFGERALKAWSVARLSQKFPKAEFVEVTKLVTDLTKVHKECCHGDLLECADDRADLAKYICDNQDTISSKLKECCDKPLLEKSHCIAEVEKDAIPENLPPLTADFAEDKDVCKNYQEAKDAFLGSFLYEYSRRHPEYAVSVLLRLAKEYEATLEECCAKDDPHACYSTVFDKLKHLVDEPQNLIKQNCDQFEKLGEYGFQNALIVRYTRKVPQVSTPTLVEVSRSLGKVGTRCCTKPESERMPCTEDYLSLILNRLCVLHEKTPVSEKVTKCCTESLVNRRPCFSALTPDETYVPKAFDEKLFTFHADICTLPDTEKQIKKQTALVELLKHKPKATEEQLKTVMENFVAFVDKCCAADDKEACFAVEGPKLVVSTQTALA

Sequence of UniProt P02453 (P02453 162-1217, chain 1 of 2): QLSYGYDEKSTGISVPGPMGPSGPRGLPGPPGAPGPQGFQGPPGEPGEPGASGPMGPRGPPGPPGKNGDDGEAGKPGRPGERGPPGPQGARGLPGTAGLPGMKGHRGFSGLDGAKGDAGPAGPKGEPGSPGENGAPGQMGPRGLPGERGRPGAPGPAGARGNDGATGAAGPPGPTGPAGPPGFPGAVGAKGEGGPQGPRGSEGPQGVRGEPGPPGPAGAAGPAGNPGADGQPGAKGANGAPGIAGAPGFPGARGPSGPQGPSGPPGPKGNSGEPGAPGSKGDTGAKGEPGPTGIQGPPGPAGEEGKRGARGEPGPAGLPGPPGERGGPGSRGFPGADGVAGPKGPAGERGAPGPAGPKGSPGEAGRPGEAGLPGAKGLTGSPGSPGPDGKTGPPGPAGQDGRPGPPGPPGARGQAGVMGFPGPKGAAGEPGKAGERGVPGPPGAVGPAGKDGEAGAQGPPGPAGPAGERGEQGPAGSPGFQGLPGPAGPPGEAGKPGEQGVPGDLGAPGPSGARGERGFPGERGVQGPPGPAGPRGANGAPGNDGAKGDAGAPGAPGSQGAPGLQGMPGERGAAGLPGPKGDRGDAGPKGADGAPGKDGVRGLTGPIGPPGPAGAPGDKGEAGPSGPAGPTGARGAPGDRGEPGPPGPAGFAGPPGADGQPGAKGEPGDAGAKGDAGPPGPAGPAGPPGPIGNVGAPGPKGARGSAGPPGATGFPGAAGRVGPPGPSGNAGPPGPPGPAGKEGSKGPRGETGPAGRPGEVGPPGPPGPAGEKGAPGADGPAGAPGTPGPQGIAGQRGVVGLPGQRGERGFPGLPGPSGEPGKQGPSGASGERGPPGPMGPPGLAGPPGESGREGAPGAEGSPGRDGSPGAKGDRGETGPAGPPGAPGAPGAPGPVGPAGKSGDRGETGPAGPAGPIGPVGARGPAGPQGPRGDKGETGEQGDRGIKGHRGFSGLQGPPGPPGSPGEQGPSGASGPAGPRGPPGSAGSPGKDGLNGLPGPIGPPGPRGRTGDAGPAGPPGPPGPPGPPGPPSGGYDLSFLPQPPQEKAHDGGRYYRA
Sequence of UniProt P02453 (P02465 80-1117, chain 2 of 2, further chain): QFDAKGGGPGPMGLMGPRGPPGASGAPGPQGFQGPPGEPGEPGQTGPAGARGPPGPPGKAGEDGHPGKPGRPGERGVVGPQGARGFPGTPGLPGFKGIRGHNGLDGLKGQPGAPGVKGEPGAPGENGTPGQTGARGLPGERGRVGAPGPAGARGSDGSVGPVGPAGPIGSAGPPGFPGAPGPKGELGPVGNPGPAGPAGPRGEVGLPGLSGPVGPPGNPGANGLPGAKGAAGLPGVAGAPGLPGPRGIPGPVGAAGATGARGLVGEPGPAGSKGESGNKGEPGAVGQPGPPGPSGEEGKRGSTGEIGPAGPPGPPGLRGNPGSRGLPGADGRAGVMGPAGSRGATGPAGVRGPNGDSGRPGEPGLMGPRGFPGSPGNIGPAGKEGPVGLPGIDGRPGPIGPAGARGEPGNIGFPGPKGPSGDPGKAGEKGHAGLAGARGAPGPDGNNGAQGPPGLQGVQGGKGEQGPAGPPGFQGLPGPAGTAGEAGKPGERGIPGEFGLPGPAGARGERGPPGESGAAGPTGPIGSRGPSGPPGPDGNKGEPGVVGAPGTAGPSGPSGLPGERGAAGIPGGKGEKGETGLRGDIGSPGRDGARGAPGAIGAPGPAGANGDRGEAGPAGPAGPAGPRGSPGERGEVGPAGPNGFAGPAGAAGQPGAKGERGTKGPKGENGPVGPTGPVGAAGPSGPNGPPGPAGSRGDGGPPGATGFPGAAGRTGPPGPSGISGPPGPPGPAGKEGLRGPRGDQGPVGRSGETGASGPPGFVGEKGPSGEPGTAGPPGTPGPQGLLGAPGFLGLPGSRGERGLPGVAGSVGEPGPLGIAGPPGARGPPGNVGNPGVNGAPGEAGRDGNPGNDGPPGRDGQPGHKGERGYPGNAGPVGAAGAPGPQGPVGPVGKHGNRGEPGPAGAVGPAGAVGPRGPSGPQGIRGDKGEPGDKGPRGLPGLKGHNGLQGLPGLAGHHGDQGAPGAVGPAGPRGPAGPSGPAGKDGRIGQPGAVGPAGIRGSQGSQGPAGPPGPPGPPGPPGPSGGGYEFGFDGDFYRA

Relative mapA Binding (relative density) [2]	Relative mapA Binding (relative density) [3]	Relative mapA Binding (relative density) [4]	Relative mapA Binding (relative density) [5]	Relative mapA Binding (relative density) [6]	Relative mapA Binding (relative density) [7]	Substance	height of the HPLC peak of unhydrolysed αs1-casein(1-17) after incubation with pepO-transformed HN001 (non-transformed: approximately 250 mAU) [1]
						HN001 peptidase pepO	the major peak of unhydrolysed αs1-casein(1-17) had a height of approximately 150 mAU
1.02	0.83	0.78	0.67	2.57	0.76	mucus adhesion promoting (mapA) protein of Lactobacillus reuteri	
